Source: PMC10656488 (2023)

B1: SCNN1B protein (in vitro ubiquitination system, ITC and SPR) (natural protein)
chain: MPVKKYLLKCLHRLQKGPGYTYKELLVWYCNNTNTHGPKRIICEGPKKKAMWFLLTLLFACLVCWQWGVFIQTYLSWEVSVSLSMGFKTMNFPAVTVCNSSPFQYSKVKHLLKDLDELMEAVLEKILAPEASHSNTTRTLNFTIWNHTPLVLIDERNPDHPVVLNLFGDSHNSSNPAPGSTCNAQGCKVAMRLCSANGTVCTLRNFTSATQAVTEWYILQATNIFSQVLPQDLVGMGYAPDRIILACLFGTEPCSHRNFTPIFYPDYGNCYIFNWGMTEETLPSANPGTEFGLKLILDIGQEDYVPFLASTAGARLMLHEQRTYPFIREEGIYAMAGTETSIGVLVDKLQRKGEPYSPCTMNGSDVAIKNLYSVYNTTYSIQACLHSCFQDHMIRNCSCGHYLYPLPEGEKYCNNRDFPDWAYCYLNLQMSVTQRETCLSMCKESCNDTQYKMTISMADWPSEASEDWILHVLSQERDQSSNITLSRKGIVKLNIYFQEFNYRTIEESPANNIVWLLSNLGGQFGFWMGGSVLCLIEFGEIIIDFIWITIIKLVASCKGLRRRRPQAPYTGPPPTVAELVEAHTNFGFQPDTTSCRPHGEVYPDQQTLPIPGTPPPNYDSLRLQPLDTMESDSEVEAI
B2: ATAT1 protein (in vitro acetylation system, ITC and SPR) (enzyme)
chain: MEFPFDVDALFPERITVLDQHLRPPARRPGTTTPARVDLQQQIMTIVDELGKASAKAQHLPAPITSALRMQSNRHVIYILKDTSARPAGKGAIIGFLKVGYKKLFVLDDREAHNEVEPLCILDFYIHESVQRHGHGRELFQHMLQKERVEPHQLAIDRPSPKLLKFLNKHYNLETTVPQVNNFVIFEGFFAHQHRPPTSSLRATRHSRAAVADPIPAAPARKLPPKRAEGDIKPYSSSDREFLKVAVEPPWPLNRAPRRATPPAHPPPRSSSLGNSPDRGPLRPFVPEQELLRSLRLCPPHPTARLLLATDPGGSPAQRRRTRGTPWGLVAQSCHYSRHGGFNTSFLGTGNQERKQGEQEAEDRSASEDRVLLLDGSGEEPTQTGAPRAQAPPPQSWTVGGDIMNARVIRNLQERRSTRPW

Biological target: HSPA5 protein (wild type, in vitro systems, ITC and SPR) (UniProt P20029 20-655)
Assay: ITC

Chain of HSPA5 protein (wild type, in vitro systems, ITC and SPR) (P20029 20-655): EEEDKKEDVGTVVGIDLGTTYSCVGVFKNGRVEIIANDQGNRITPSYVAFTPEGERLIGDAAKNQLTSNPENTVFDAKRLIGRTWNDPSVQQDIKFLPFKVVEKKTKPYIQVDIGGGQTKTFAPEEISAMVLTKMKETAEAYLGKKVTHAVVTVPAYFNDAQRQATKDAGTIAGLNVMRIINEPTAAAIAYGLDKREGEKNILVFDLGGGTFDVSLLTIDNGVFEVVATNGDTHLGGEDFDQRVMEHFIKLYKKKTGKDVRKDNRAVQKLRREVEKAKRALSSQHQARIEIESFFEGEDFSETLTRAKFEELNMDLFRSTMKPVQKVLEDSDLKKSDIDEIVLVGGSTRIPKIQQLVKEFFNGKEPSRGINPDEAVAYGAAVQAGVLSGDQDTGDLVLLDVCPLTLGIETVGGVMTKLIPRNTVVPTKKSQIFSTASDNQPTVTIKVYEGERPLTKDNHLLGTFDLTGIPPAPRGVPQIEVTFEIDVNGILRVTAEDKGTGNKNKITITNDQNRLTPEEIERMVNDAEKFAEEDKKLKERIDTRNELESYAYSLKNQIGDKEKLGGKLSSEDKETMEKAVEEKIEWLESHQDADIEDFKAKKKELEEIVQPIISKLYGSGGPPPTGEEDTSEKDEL

| Binder | Kd |
| --- | --- |
| B1 | 860 nM |
| B2 | 110 nM |
